Earlier results as cited in paper PMC10349181.

Biological target: Amyloid beta (Homo sapiens) (UniProt P05067)
Sequence (P05067 672-711): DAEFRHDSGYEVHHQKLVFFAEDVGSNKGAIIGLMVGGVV

Sequence of VEGF-A (P15692 whole entry): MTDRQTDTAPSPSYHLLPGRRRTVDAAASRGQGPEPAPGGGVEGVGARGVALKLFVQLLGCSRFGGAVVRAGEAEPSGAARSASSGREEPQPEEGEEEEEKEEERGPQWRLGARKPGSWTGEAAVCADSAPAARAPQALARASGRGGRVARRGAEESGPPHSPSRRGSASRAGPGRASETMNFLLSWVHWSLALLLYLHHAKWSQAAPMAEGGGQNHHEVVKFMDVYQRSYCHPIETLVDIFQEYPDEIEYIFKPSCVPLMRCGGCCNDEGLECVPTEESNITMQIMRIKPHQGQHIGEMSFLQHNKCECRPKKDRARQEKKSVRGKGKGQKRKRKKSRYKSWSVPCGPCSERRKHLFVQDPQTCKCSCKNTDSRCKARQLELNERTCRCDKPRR

Kd: 0.05 nM
Substance: VEGF-A (from UniProt P15692)
